Peptide exchange yield data for 68 molecules are collected here from patent US20160250307A1 (IMMATICS BIOTECHNOLOGIES, published 2016).

The target of experiment [1] is HLA-A*02 (human). Description: UV-ligand exchange, anti-b2m ELISA; grade: exchange yield >=75%. A general note: An ELISA detects its analyte on a solid surface through an enzyme-linked reagent.
In experiment [2] the target is HLA-A*02 (human). Description: UV-ligand exchange, anti-b2m ELISA; grade: exchange yield >=50%.

Turning to ALLETNPYLL, in the experiment with HLA-A*02 [1], the peptide exchange yield was at least 75%.

LLHGHIVEL registered a peptide exchange yield with HLA-A*02 [2] of 50 to 75%.

In the experiment with HLA-A*02 [1], YIHNILYEV returned a peptide exchange yield of at least 75%.

Molecule KLYQEVEIASV yielded a peptide exchange yield with HLA-A*02 [1] of at least 75%.

With KILEETLYV, in the experiment with HLA-A*02 [2], the peptide exchange yield is 50 to 75%.

The molecule LLLGERVAL returned a peptide exchange yield in the experiment with HLA-A*02 [1] of at least 75%.

As for LLIDVVTYL, in the experiment with HLA-A*02 [1], the peptide exchange yield was at least 75%.

Molecule SLLEEPNVIRV gave a peptide exchange yield in the experiment with HLA-A*02 [1] of at least 75%.

The molecule LLYEGKLTL registered a peptide exchange yield in the experiment with HLA-A*02 [1] of at least 75%.

In the case of ALADVVHEA, the peptide exchange yield with HLA-A*02 [2] was in the range of 50 to 75%.

KIDEKNFVV: the peptide exchange yield in the experiment with HLA-A*02 [2] was 50 to 75%.

Molecule NLAEVVERV gave a peptide exchange yield with HLA-A*02 [1] of at least 75%.

In turn, HLTEAIQYV returned a peptide exchange yield with HLA-A*02 [2] of 50 to 75%.

VLIGSNHSL returned a peptide exchange yield with HLA-A*02 [1] of at least 75%.

Molecule KLGAVFNQV showed a peptide exchange yield with HLA-A*02 [1] of at least 75%.

Consider YLEPYLKEV, for which the peptide exchange yield in the experiment with HLA-A*02 [1] is at least 75%.

As for QLHDFVMSL, in the experiment with HLA-A*02 [1], the peptide exchange yield is at least 75%.

The molecule VLMDKLVEL returned a peptide exchange yield with HLA-A*02 [1] of at least 75%.

Turning to TLGQFYQEV, the peptide exchange yield with HLA-A*02 [1] was at least 75%.

In the experiment with HLA-A*02 [1], GLFAPLVFL had a peptide exchange yield of at least 75%.

In the case of ALSQVTLLL, the peptide exchange yield with HLA-A*02 [1] is at least 75%.

On to GVLPGLVGV, for which the peptide exchange yield with HLA-A*02 [2] was in the range of 50 to 75%.

In the case of SVYDGKLLI, in the experiment with HLA-A*02 [1], the peptide exchange yield is at least 75%.

As for SLAEGTATV, the peptide exchange yield with HLA-A*02 [2] fell in the range of 50 to 75%.

TLGQIWDV returned a peptide exchange yield with HLA-A*02 [1] of at least 75%.

Molecule AVIGGLIYV registered a peptide exchange yield in the experiment with HLA-A*02 [1] of at least 75%.

Molecule FLLEQPEIQV yielded a peptide exchange yield with HLA-A*02 [2] of 50 to 75%.

As to ALLGGNVRMML, the peptide exchange yield with HLA-A*02 [2] lay in the range of 50 to 75%.

Molecule ALTSVVVTL registered a peptide exchange yield in the experiment with HLA-A*02 [1] of at least 75%.

On to SLQESILAQV, for which the peptide exchange yield with HLA-A*02 [2] fell in the range of 50 to 75%.

In the experiment with HLA-A*02 [2], KLFSGDELLEV showed a peptide exchange yield of 50 to 75%.

In the experiment with HLA-A*02 [1], ALAEALKEV gave a peptide exchange yield of at least 75%.

As to RVIEHVEQV, in the experiment with HLA-A*02 [1], the peptide exchange yield is at least 75%.

ALPTVLVGV showed a peptide exchange yield in the experiment with HLA-A*02 [1] of at least 75%.

In the experiment with HLA-A*02 [1], LLFPHPVNQV registered a peptide exchange yield of at least 75%.

Take GLSNLGIKSI: in the experiment with HLA-A*02 [1], the peptide exchange yield is at least 75%.

With LLLDKLILL, in the experiment with HLA-A*02 [1], the peptide exchange yield was at least 75%.

Molecule KIAELLENV showed a peptide exchange yield with HLA-A*02 [1] of at least 75%.

VMQDPEFLQSV: the peptide exchange yield with HLA-A*02 [1] was at least 75%.

Regarding RLFADILNDV, the peptide exchange yield with HLA-A*02 [1] is at least 75%.

SLSAFLPSL displayed a peptide exchange yield in the experiment with HLA-A*02 [1] of at least 75%.

As for KLLDTMVDTFL, in the experiment with HLA-A*02 [1], the peptide exchange yield is at least 75%.

In the experiment with HLA-A*02 [1], ALTSISAGV returned a peptide exchange yield of at least 75%.

In turn, TVGGSEILFEV registered a peptide exchange yield with HLA-A*02 [1] of at least 75%.

RLFNDPVAMV registered a peptide exchange yield with HLA-A*02 [1] of at least 75%.

As to GLLDPNVKSIFV, the peptide exchange yield with HLA-A*02 [2] lay within 50 to 75%.

Turning to LLLPLLPPLSP, in the experiment with HLA-A*02 [2], the peptide exchange yield is 50 to 75%.

Turning to ALLAEGITWV, the peptide exchange yield with HLA-A*02 [2] is 50 to 75%.

On to GLIHLEGDTV, for which, in the experiment with HLA-A*02 [2], the peptide exchange yield was in the range of 50 to 75%.

For GLFNAELLEA, the peptide exchange yield in the experiment with HLA-A*02 [2] fell in the range of 50 to 75%.

For SLLPQLIEV, the peptide exchange yield in the experiment with HLA-A*02 [1] was at least 75%.

In the experiment with HLA-A*02 [1], GLLSGLDIMEV returned a peptide exchange yield of at least 75%.

The molecule ALLEADVNIKL displayed a peptide exchange yield in the experiment with HLA-A*02 [1] of at least 75%.

In turn, WLIEDGKVVTV yielded a peptide exchange yield with HLA-A*02 [1] of at least 75%.

In the experiment with HLA-A*02 [2], ILADTFIGV had a peptide exchange yield of 50 to 75%.

In turn, AMGEKSFSV yielded a peptide exchange yield with HLA-A*02 [1] of at least 75%.

The molecule KLFEEIREI came in with a peptide exchange yield with HLA-A*02 [1] of at least 75%.

In turn, ALYGRLEVV had a peptide exchange yield with HLA-A*02 [1] of at least 75%.

For ALDAGAVYTL, the peptide exchange yield in the experiment with HLA-A*02 [1] is at least 75%.

The molecule KLKETIQKL registered a peptide exchange yield with HLA-A*02 [2] of 50 to 75%.

On to KLHEEIDRV, for which, in the experiment with HLA-A*02 [2], the peptide exchange yield is 50 to 75%.

In the experiment with HLA-A*02 [1], VLGEVKVGV came in with a peptide exchange yield of at least 75%.

As for GLAFSLNGV, the peptide exchange yield in the experiment with HLA-A*02 [1] is at least 75%.

ALLGKLDAI returned a peptide exchange yield with HLA-A*02 [1] of at least 75%.

Consider AMAEMKVVL, for which the peptide exchange yield with HLA-A*02 [2] lay in the range of 50 to 75%.

The molecule GLYGRTIEL gave a peptide exchange yield with HLA-A*02 [2] of 50 to 75%.

In the experiment with HLA-A*02 [2], ILNVDGLIGV returned a peptide exchange yield of 50 to 75%.

ALDPKANFST yielded a peptide exchange yield with HLA-A*02 [2] of 50 to 75%.
